Key:
[1] = target: human motilin receptor spliced form A (MTL-R1A) (human); experiment: displacement of [125I] human motilin from crude membranes of MTL-R1A transfected HEK-293/aeq17 cells
[2] = target: human motilin receptor spliced form A (MTL-R1A) (human); experiment: cell-based or functional assay
[3] = target: human motilin receptor spliced form A (MTL-R1A) (human); experiment: direct radioligand binding on cell membranes of MTL-R1A transfected cells

IC50 [1] [nM] | Aequorin Assay (EC50 nM) [2] [nM] | Bmax (fmol/mg protein) [3] | Kd [3] [nM] | bioluminescent response, aequorin assay, 100 nM peptide (fold over background) [2] | Substance
127 | 138 | – | – | – | 1-11 MTL (from UniProt P12872 26-36) (peptide)
14 | 72 | – | – | – | 1-12 MTL (from UniProt P12872 26-37) (peptide)
0.9 | 3.8 | – | – | – | 1-13 MTL (from UniProt P12872 26-38) (peptide)
0.3 | 4.1 | – | – | – | 1-19 MTL (from UniProt P12872 26-44) (peptide)
1100 | > 10000 | – | – | – | 10-22 MTL (from UniProt P12872 35-47) (peptide)
0.2 | 3.9 | – | – | – | Leu 13 MTL (from UniProt P12872 26-115) (peptide)
– | – | 240 | 0.1 | – | [125I]-Tyr7-human motilin (from UniProt P12872 26-47) (peptide)
0.2 | 4.4 | – | – | – | canine motilin (from UniProt P19863 1-22) (peptide)
0.5 | 2.1 | – | – | > 4 | human motilin (MTL) (from UniProt P12872 26-47) (peptide)

Reference: patent EP1086117B1
